The source of these data is US7888068B2, “Cloning of honey bee allergen C” (PLS-Design GmbH, priority 2006, dated 2011).

Entries after “also recorded” stand apart in the source; their conditions may differ.

Data set [1] deals with phospholipase A2 (Api m 1), hyaluronidase (Api m 2), acid phosphatase (Api m 3), and melittin (Api m 4). Particulars: versus Api m 1, Api m 2, Api m 3, Api m 4 and other minor components (Ref. 14); cited from earlier work.
In data set [2] the test system is IgE from pooled serum from honey bee allergic patients. The data set can be described thus: Immunoprinting of enriched Api m 5 with pooled serum from honey bee allergic patients (AlaBLOT, anti-IgE detection). The data set is classed as binding, human. The settings on record: pooled serum from honey bee allergic patients diluted 1:10; anti-IgE alkaline phosphatase conjugate; BSA negative control. The protocol: Detection was performed with anti-IgE alkaline phosphatase conjugate (DPC Alablot system). Lane 1: BSA, negative control; Lane 2: honey bee venom; Lane 3: Enriched Api m 5 fraction; Lane 4: Protein standard (PageRuler™ Prestained Protein Standard, Fermentas GmbH).
Immunoprinting was performed to verify the allergic potential of enriched Api m 5. Two SDS-PAGE gel slabs with each containing samples of bovine serum albumin, honey bee venom and bee venom enriched in Api m 5, were run and eletroblotted onto a nitrocellulose membranes (Protran™, Whatman GmbH, Dassel, Germany). The nitrocellulose membranes were pre-equilibrated in transfer buffer (20 mm CAPS, pH 11, 10% (v/v) methanol). Transfer was done at 50V for 3 hours submersed in blotting buffer in a blotting chamber (model TE22, Amersham Pharmacia, Freiburg, Germany) according to the instructions of the manufacturer. One membrane was subsequently stained with coomassie brilliant blue G250 according to the instructions of the manufacturer. […] Using the AlaBLOT system kit (DPC Biermann GmbH, Bad Nauheim, Germany) blocked sample strips were incubated with pooled serum from honey bee allergic patients diluted 1:10, washed and analyzed for binding of anti-IgE antibodies.

The next data set has as its system bee venom allergic sera. Particulars: two studies (Ref. 10); cited from earlier work.
Data set [3] is described as follows: Dipeptidyl peptidase activity assay with Gly-Pro p-nitroanilide substrate. The format is biochemical. Particulars: 0.5 mM Gly-Pro-pNA, 25° C., monitored at 405 nm, compared to buffer alone. How it is done:
One putative target of the enzyme might be the specific cleavage of the N-terminal peptide of pro-melittin to generate active melittin. The cleavage releases dipeptides with a C-terminal proline. Activity of such dipeptidases can be examined using the substrate Gly-Pro p-nitroanilide hydrochloride (Ref 22). Purified Api m 5 in NTA-binding buffer containing 300 mmol/L was incubated with 0.5 mM glycylpropyl p-nitroanilide (Gly-Pro-pNA, Sigma-Aldrich GmbH, Munich, Germany) as a substrate at 25° C. Released p-nitroaniline was spectrophotometrically monitored at 405 nm (FIG. 10).

B1: Api m 5 (protein)
chain: KSVPRVIDQDLERYEPLEEEDHRGARVPFNLEETYDQSFRANSFNGTWKTDREILYSDNYVGDIRLFDVTTGSGTVLLDSSVTADFDKASVMFSFDNSHVAIGHDYVNGFRYSIHQKCTVYNIKSRTFTDIANGDRIPLFKWSPTRNALIYVHKNDIYYQVFFEGGSDTRRITNTGVPDIVFNGIPDWVYEEEVLGSPVAFWISPDGRHLAFATFNDTNVRDIVISKYGSPGNSRDQYPNEIRIKYPKAGTTNPFVSLSVIDLHDPSSKLIDLPPPVDVVGADNVLYTANWRRDGEIVATWTNRVQNKAQLVLYDTKGNANNIYYEEETEGWLRIQPPLYHDRYVIVAKLQDSGTKAGRFLHATRLEYRNGALVDETDLTPGTCEVISLLLVDHARARLYYLGTELGKPSHKNLYSVQLSGNEPPVCLSCDVLTPEGNRCTYAYAYFSTNGSHYALYCAGPDPVFIAIVNANHRQISIWEENRSLRRKLAARTQPIVKNFNVNANGYTNKVKLYLPPDFDETKKYPLLITVYAGPNTIRITEEATYGFESYIVTNRSVIYGRIDGRGSAYKGSKMLFEIYRRLGTVEIEDQIIITRTLQEKYSWIDSNRTGIWGWSYGGFSAAMVLATDAESVFKCGISVAPVTSWIYYDSLYTERFMGLPTPEDNQSGYNDTDVSRRVEGMRGKKYMLIHGTADDNVHYQQTMMLNKALVNSDIMFQQQTYTDEAHALGNVFPHLYHTTDRFWANCLGYSH
On to B1, for which the cross-reactivity in immunodiffusion entry in data set [1] was “noncross-reactive”. The “binding of IgE / allergic potential in immunoprinting” value in data set [2] is “binds to sIgE of honey bee allergic patients; also recorded: exhibited the allergic potential as seen in whole bee venom”. The “reaction of bee venom allergic sera” value in the data set with bee venom allergic sera is “virtually all tested bee venom allergic sera have been shown to react”.

B2: recombinant Api m 5: cloned recombinant Api m 5 expressed from vector pIB/Api5 with melittin signal sequence and His-tag (protein, listed as Apis mellifera)
chain: MEVLVQLALLLVVHGSLVVLVAGKSVPRVIDQDLERYEPLEEEDHRGARVPFNLEETYDQSFRANSFNGTWKTDREILYSDNYVGDIRLFDVTTGSGTVLLDSSVTADFDKASVMFSFDNSHVAIGHDYVNGFRYSIHQKCTVYNIKSRTFTDIANGDRIPLFKWSPTRNALIYVHKNDIYYQVFFEGGSDTRRITNTGVPDIVFNGIPDWVYEEEVLGSPVAFWISPDGRHLAFATFNDTNVRDIVISKYGSPGNSRDQYPNEIRIKYPKAGTTNPFVSLSVIDLHDPSSKLIDLPPPVDVVGADNVLYTANWRRDGEIVATWTNRVQNKAQLVLYDTKGNANNIYYEEETEGWLRIQPPLYHDRYVIVAKLQDSGTKAGRFLHATRLEYRNGALVDETDLTPGTCEVISLLLVDHARARLYYLGTELGKPSHKNLYSVQLSGNEPPVCLSCDVLTPEGNRCTYAYAYFSTNGSHYALYCAGPDPVFIAIVNANHRQISIWEENRSLRRKLAARTQPIVKNFNVNANGYTNKVKLYLPPDFDETKKYPLLITVYAGPNTIRITEEATYGFESYIVTNRSVIYGRIDGRGSAYKGSKMLFEIYRRLGTVEIEDQIIITRTLQEKYSWIDSNRTGIWGWSYGGFSAAMVLATDAESVFKCGISVAPVTSWIYYDSLYTERFMGLPTPEDNQSGYNDTDVSRRVEGMRGKKYMLIHGTADDNVHYQQTMMLNKALVNSDIMFQQQTYTDEAHALGNVFPHLYHTTDRFWANCLGYSH
modifications: His-tag, melittin signal
Consider B2, for which, in data set [3], the “dipeptidyl peptidase activity (release of p-nitroaniline)” value is reported as “Clearly the peptidase activity of recombinant Api m 5 in releasing the chromogenic label from the dipeptide can be seen; also recorded: showed a dipeptidyl peptidase activity”.
